# Fewer inactive variants are shown than the library holds.
# B1: TPR 5TU (parent)
# chain: GGAUCUUCUCGAUCUAACAAAAAAGACAAAUCUGCCACAAAGCUUGAGAGCAUCUUCGGAUGCAGAGGCGGCAGCCUUCGGUGGCGCGAUAGCGCCAACGUUCUCAACUAUGACACGCAAAACGCGUGCUCCGUUGAAUGGAGUUUAUCAUG
# Variants of: B1
# Test: polymerase ribozyme fitness, log enrichment relative to wild type (log ratio); higher = more active; in vitro selection for triplet polymerase activity
# In short: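 Each subunit of a heterodimeric triplet polymerase ribozyme was represented by a PCR-built, transcribed mutant library that underwent triplicate single-round in vitro selection with frozen incubation at −7 °C. Extended constructs were recovered by gel excision, streptavidin-bead capture and RT-PCR, and Illumina sequencing of input and output libraries kept genotypes with ≥10 input reads and ≥1 read per output. Fitness is the logarithm of genotype enrichment relative to wild-type enrichment, from inverse-variance-weighted replicate averages, with a logarithm base of 2.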
row,Variant,polymerase ribozyme fitness (log ratio)
1,GGAUCUUCUCGAUCUGACAAAAAAGACAAAUCUGCCACCAAGCUUGAGAGCAUCUUCGGAUGCAGAGGCGGCAGCCUUCGGUGGCGCGAUAGCGCCAACGUUCUCAACUAUGACACGCAAAACGCGUGCUCCGUUGAAUGGAGUUUAUCAUG [A16G A39C],-2.62
2,GGAUCUUCUCGAUCUGACACACAAAACAAAUCUGCCUCACAGCUUGAGAGCAUCUUCGGAUGCAGAGGCGGCAGUCUUCGGUGGCGCGAUAGCGCUAACGUUCUCAACUAUGACACGCAAAACGCGUGCGCCGUUGAUUGGAGUGUAUCAUG [A16G A20C A22C G25A A37U A40C C75U C96U U130G A138U U145G],≤ -4.2
3,GGAUCUUCUCGAUCUGACAAAAGAGACAAAUCUGCCUCAAAGCUUGAGAGCAUCUUCGGAUGCAGAGGCGGCAGCCUUCGGUGGCACGAUAGCGCCAACGUUCUCAACUAUGACACGCAAAACGCGUGCUCCGUAGAAUGGAGUUUAUCAUG [A16G A23G A37U G86A U135A],≤ -4.2
4,GGAUCUUCUCGAUCUGACAAAAAAGUCAAAUCUGCCACAAAGCUUGAGAGCAUCUUCGGAUGCAGAGGCGGCAGCCUUCGGUGGAGCGAUAGCGCCAACGUUCUGAACUAUGAUACGCAAAACGCGUGCUCCGUUGAAUGCAGUUUAUCACG [A16G A26U C85A C105G C114U G141C U151C],≤ -4.2
5,GGAUCUUCUCGAUCUGACAAAAAAGACAAUUCUGCCACAAAGCUUGAGAGCAUCUUCGGAUGCAGAGGCGGCAGCCUUCGGUGGCGCGAGAGCGCCAACGUUCUCAACUAUGACACGCAAAACGCGUGCUCCGUUGAAUGGAGUUUAUCAUU [A16G A30U U90G G152U],≤ -4.2
6,GGAUCUUCUCGAUCUGACAAAAAUGACAAAUCUGCCACAAAGCUUUAGAGCAUCUUCGGAUGCAGAGGCGGCAGCCUUCGGUGGGGCGAUAGCGCCAACGUUCUCCACAAUGAUACGGAGAACGCGUGCUCCGUUGAAUGGAGUUUAUCAUG [A16G A24U G46U C85G A106C U109A C114U C118G A120G],≤ -4.2
7,GGAUCUUCUCGAUCUGACACAAAAGACAAAUCUGCCACAAAGCUUGAGAGCAUCUUCGGAUGCAGAGGCGGCAGCCUACGGUGGCGUGAUAGCGCCAACGUUCUCAACUAUGACACGCAAAACGCGUGCUCCGUUGAAUGGAGUUUAUCAUG [A16G A20C U78A C87U],≤ -4.2
8,GGAUCUUCUCGAUCUGACAAAAAAGACAAAUCUGCCACAAGGCUUGAGAGCAGCUUCGGAUGCAGAGGCGGCUGCCUUCGGUGGCGCAAUAGCGCCAACGUUCUCAACUAUGACACGCAAAACGUGUGCUCCUUUGAAUGGAGUUUAUCAUG [A16G A41G U53G A73U G88A C125U G133U],≤ -4.2
9,GGAUCUUCUCGAUCUGACAAAAAAGACAAAUCUGCCACAAAGCUUGAGAGCAUCUUCGGAUGCAGAGGCGGCUGCCUUCGGUGGCGCGAUAGCUCCAACGUUCUCAACUAUGACACGCAAAACGCGUGCUCCGUUGAAUGGAGUUUAUCAUG [A16G A73U G94U],-2.22
10,GGAUCUUCUCGAUCUGACACAAAAGACAAAUCUGCCACAAAGCUUGAGAGCAUCUUCGGAUGCAGAGGGGGCAGCCUUCGGUGGCGCGAUAGCGCCAACGUUCUCAACUAUGACACGCAAAACGCGUGCUCCGUUGAAUGGAGUUUAUGAUG [A16G A20C C69G C149G],-4.02
11,GGAUCUUCUCGAUCUGACAUAAAAGACAAAUCUGCCACAAAGCUUGAGAGCAUCUUCGGAUGCAGAGGCGGCAGCCUUCGGUGGCGCGAUAGCGCCAAUGUGCUCAACUAUGACACGCAAAACGCGUGCUCCGUUGAAUGGAGUUUAUCAUG [A16G A20U C99U U102G],≤ -4.2
12,GGAUCUUCUCGAUCUGACAACAAAGAGAAAUCUGCCACAAAGCUUGAGAGCAUCUUCGAAUGCAGACGCGGCAGCCUUCGGUGGCGCGAUAGCGCCAACGUUCUCAACUAUGACACGCAAAACGCGUGCUCCGUUGAAUGGAGUGUAUCAUG [A16G A21C C27G G59A G67C U145G],≤ -4.2
13,GGAUCUUCUCGAUCUGACAAAAAAGACAAAUCUGCCACAAAGCUUGAGUGCAUCUUCGGAUGCAGAGGCGGCAGCCUUCGGUGGCGCGAUAGCGCCAACGUUCUCAACUAUGACACGCAAAACGCGUGCUUCGUUGAAUGGAGUUUAUCAUG [A16G A49U C131U],-1.5
14,GGAUCUUCUCGAUCUGACAAAAAUGACAAAUCUGCCACAAAGCUUGAGAGCCUCUUCGGAUGCAGAGGCGGCAGCCUUCGGUGGAGCGAUAGCGUCAACGUUCUCAACUAUGACACGCAAAACGCGUGCUCCGUUGAAUGGAGUUUAUCAUG [A16G A24U A52C C85A C95U],≤ -4.2
15,GGAUCUUCUCGAUCUGACAACAAAGACAAAUCUGCCACAAAGCUUGACAGCAUAUUCUGAUGCAGAGGCGGCAGCCUUCGGUGGCGCGAUAGUGCCAACGUUCUCAACUAUGACACGCAAAGCGCGUGCUCCGUUGAAUGGAGUUUAUCAUG [A16G A21C G48C C54A G58U C93U A122G],-3.83
16,GGAUCUUCUCGAUCUGACAGAAAAGACAAAUCUGCCACAAAGCUUGAGAGCAUCUUCGGAUGCAGAGGCGGCAGCCUUCGGUGGCGCGAUAGCGCCAACGUUCUCAACUAUGACACGCACAACGCGUGCUCCGUUGAAUGGAGUUUAUCAUG [A16G A20G A120C],-1.84
17,GGAUCUUCUCGAUCUGACAAAGAAGAAAAAUCUGCCACAAAGCUUGAGCGCAUCUUUGCAUGCAGAGGCGGCAGCCUUCGGUGGUGCGAUAGCGCCAACGUUCUCAACUAUGACACGAAAAACGCGUGUUCCGUUGAAUGGAGUUUAUCAUG [A16G A22G C27A A49C C57U G59C C85U C118A C129U],≤ -4.2
18,GGAUCUUCUCGAUCUGACAAAAAAGACAAAUCUGCCACACAGCUUGAGAGCAUCUUCGGAUGCAGAGGCGGCAGCCUUCGGUGGCGCGAUAGCGCCAACGUUCUCAACUAUGACACGCAAAACGCGUGCUCCGUUGAAUGGAGUUUAUCAUG [A16G A40C],-0.456
19,GGAUCUUCUCGAUCUGACAAAAAAGACAAAUCUGCCUCAAAGCUUGAGAGCAUCUUCGGAUGCAGAGGCGGCAGCCUUCGGUGGCGCGAUAGCGCCAACGUUCUCAACUAUGACACGCAAAACGCGUGCUCCGGUGAAUGGAGUUUAUCAUG [A16G A37U U134G],-3.68
